Source: patent US5888763A, “Peptides specific for the first Crk-SH3 domain” (The Rockefeller University, priority 1994, dated 1999)

Columns and labels:
Assay in all cases: SH3 blot assay with 35S-labeled gst-C3G CB-region
Type in all cases: binding
[1] = test system: Grb2, the individual Grb2SH3 domains
Procedure: (§1) SH3 Blot Assay. […] of gst or equimolar amounts of SH3-fusion proteins were subjected to SDS-PAGE, electroblotted and incubated with […] (70,000 dpm/ml) ^35 S-labeled gst-C3G CB region as described (Feller et al., supra). Filters were exposed over night.

PI3Kp85-a-SH3 domain = biological target: T1, PI3Kp85-a-SH3 domain (Homo sapiens, UniProt P27986)
T1 construct: The PI3Kp85-a-SH3 domain was a gift of L. Cantley
T1 sequence (P27986 3-79 limits assumed): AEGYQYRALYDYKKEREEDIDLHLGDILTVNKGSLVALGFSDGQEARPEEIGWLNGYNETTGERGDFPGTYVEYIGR
Procedure: as §1

CrkSH3(N) domain = biological target: T2, CrkSH3(N) domain (Mus musculus, UniProt Q64010)
T2 construct: probed with 1-2 μg/ml ^35 S-labeled gst-fusion CrkSH3(1) domain; made in house; host or cells: bacteria
T2 sequence (Q64010 132-192 limits assumed): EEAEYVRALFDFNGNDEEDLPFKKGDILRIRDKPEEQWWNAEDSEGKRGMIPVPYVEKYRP
Procedure: as §1

binding to Grb2 and the individual Grb2SH3 domains [1]: only bound weakly | binding to PI3Kp85-a-SH3 domain (PI3Kp85-a-SH3 domain): only bound weakly | binding to gst-fusion constructs containing the CrkSH3(N) domain (CrkSH3(N) domain): bound strongly
B1: C3G CB-region: C3G region containing all four CB-sequences expressed as 35S-labeled gst-fusion protein (protein)
chain: NSPPPALPPKKRQSAPSPTRVAVVAPMSRATSGSSLPVGINRQDFDVDCYAQRRLSGGSHSYGGESPRLSPCSSIGKLSKSDEQLSSLDRDSGQCSRNTSCETLDHYDPDYEFLQQDLSNADQIPQQTAWNLSPLPESLGESGSPFLGPPFQLPLGGHPQPDGPLAPGQQTDTPPALPKKKRRSAASQTADGSGCRVSYERHPSQYDNISGEDLQSTAPIPSVPYAPFAAILPFQHGGSSAPVEFVGDFTAPESTGDPEKPPPLPEKKQKHMLAYMQLLEDYSEPQPSMFYQTPQNEHIYQQKMKLLMEVYGFSDSFSGVDSVQELAPPPALPPAQRQLEPPAGKDGHPRDPSAVSVVPGKDSRDGSERAPKDP
